Assay results taken from patent US20250011440A1.

What was measured:
[1] = target: human FcRn-His-GST (FcRn fused to a His-tag and glutathione S transferase) (human) (UniProt P55899); assay: AlphaScreen competition vs wild-type Fc, pH 6.0 (FIG. 13)
[2] = target: human FcRn-His-GST (FcRn fused to a His-tag and glutathione S transferase) (human) (UniProt P55899); assay: AlphaScreen competition, pH 6.0 (FIG. 13)

Chain of UniProt P55899 (P55899 24-297, chain 1 of 2): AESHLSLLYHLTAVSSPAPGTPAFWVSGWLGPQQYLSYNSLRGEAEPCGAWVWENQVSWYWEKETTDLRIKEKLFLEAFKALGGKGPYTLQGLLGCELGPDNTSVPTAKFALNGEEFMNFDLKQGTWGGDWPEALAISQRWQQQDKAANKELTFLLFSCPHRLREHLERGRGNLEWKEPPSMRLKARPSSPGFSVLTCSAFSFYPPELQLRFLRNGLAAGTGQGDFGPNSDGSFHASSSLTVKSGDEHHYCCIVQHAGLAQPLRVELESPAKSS
Chain of UniProt P55899 (P61769 21-119, chain 2 of 2, further chain): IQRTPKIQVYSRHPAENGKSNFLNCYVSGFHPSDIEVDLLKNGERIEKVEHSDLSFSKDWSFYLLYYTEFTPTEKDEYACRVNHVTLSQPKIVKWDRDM

## IgG1 Fc variant N286# (deletion of N286; taken as in the anti-HER2 antibody trastuzumab)
[1]
  fold increase in FcRn affinity (vs wild type): 2 fold

## IgG1 Fc variant ^254N (Asn inserted after position 254; taken as in the anti-HER2 antibody trastuzumab)
[2]
  percent of the binding affinity of the wild type: 1.1%
